Experimental data reported in publication PMC7226614.

Biological target: Myc-GRAF3 (human) (UniProt A6NI28)
Sequence of UniProt A6NI28 (A6NI28 whole entry): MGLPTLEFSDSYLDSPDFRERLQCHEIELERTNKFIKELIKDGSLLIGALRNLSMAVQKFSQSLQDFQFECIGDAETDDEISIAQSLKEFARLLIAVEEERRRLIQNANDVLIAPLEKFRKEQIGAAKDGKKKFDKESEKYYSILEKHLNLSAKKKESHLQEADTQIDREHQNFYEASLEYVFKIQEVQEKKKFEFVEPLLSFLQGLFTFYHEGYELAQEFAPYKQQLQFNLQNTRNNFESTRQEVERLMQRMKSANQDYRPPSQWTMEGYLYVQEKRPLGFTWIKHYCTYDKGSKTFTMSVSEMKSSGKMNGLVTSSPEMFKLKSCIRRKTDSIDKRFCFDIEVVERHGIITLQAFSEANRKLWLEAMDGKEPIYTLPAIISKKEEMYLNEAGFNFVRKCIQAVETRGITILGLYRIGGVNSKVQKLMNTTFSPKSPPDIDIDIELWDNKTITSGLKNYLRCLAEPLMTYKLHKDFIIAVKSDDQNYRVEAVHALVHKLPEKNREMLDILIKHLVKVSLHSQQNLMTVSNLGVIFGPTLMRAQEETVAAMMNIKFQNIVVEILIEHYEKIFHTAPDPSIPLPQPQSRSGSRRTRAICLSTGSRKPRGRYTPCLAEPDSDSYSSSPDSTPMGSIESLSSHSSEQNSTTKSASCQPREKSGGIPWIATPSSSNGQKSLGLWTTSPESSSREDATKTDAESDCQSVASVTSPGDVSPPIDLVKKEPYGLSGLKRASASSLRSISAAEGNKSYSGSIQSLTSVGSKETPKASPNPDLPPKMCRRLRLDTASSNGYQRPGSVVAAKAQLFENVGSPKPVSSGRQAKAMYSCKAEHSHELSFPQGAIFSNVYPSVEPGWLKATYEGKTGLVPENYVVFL

RhoA-dependent actin stress fibers (phalloidin staining) in RaAoSMC; cells with reduced stress fibers: 58/59 with Myc-GRAF3 alone, 5/72 with Myc-GRAF3 and Flag-BAR-PH: 5 of 72 cells
Substance: Flag-GRAF3 Bar-PH (domain or fragment)
